Two molecules from paper PMC8249405 (2021) can be followed below.

For orientation: koff means the first-order rate constant of dissociation.

First the molecules themselves.
B1: Xcc XopR-FL (aa 1-411) (natural protein)
chain: MRLSQLFNSRHRVAPEPHGANPNKTTPLIPGASPQHPLSQAPKSTTSQGASKSHRGMLASARKSLASLRKQLPLTCMGSSPTLETVESPPAHTAAVTPGRTQQQHGTQARVDQRWQPPVPNATDHERVQRPQPQPQQTPPTRQSMSVPPKPARAQQLHGPQRPVDPRMQPPIPERMRRDEGQPPQHDKPASPPVPITPAQSSLPSPRPQPGRQPSLRRLDLQLEEITRQCSDIQKQLFMEDREATPQEQHLLKTRAALIAWRNEVRDSQLEALLVALAPMEDIRAPRTTSSGLAMVQMDAMQHNRREVLKARRKSVDRAALARNYARAQRRLESLKQGDAPKEQIRRLQRMMQGYQNMLALEQIVRSTDDQLERLGAPRLMSGIPTTAEQRRQSFEKERDAHQEAIDNGYY

Series [1] concerns the molecule itself. Nature of the series: SPR; bivalent model, koff1.
The series “Xcc XopR-FL (aa 1-411)” concerns the target B1. Nature of the series: SPR; bivalent model, koff1. On the technique in general: SPR reads the build-up and loss of mass on a sensor chip optically.

In series [1], B1 had a koff of 0.27 s⁻¹.

B2: Arabidopsis thaliana Formin 1 AtFH1-FH1C (domain or fragment)
chain: RQGLQSQLLSSPSNSHGGQGFLKQLDALRSRSPSSSSSSVCSSPEKASHKSPVTSPKLSSRNSQSLSSSPDRDFSHSLDVSPRISNISPQILQSRVPPPPPPPPPLPLWGRRSQVTTKADTISRPPSLTPPSHPFVIPSENLPVTSSPMETPETVCASEAAEETPKPKLKALHWDKVRASSDREMVWDHLRSSSFKLDEEMIETLFVAKSLNNKPNQSQTTPRCVLPSPNQENRVLDPKKAQNIAILLRALNVTIEEVCEALLEGNADTLGTELLESLLKMAPTKEEERKLKAYNDDSPVKLGHAEKFLKAMLDIPFAFKRVDAMLYVANFESEVEYLKKSFETLEAACEELRNSRMFLKLLEAVLKTGNRMNVGTNRGDAHAFKLDTLLKLVDVKGADGKTTLLHFVVQEIIRAEGTRLSGNNTQTDDIKCRKLGLQVVSSLCSELSNVKKAAAMDSEVLSSYVSKLSQGIAKINEAIQVQSTITEESNSQRFSESMKTFLKRAEEEIIRVQAQESVALSLVKEITEYFHGNSAKEEAHPFRIFLVVRDFLGVVDRVCKEVGMINERTMVSSAHKFPVPVNPMMPQPLPGLVGRRQSSSSSSSSSTSSSDEDEHNSISLVS
The molecule B2 yielded a koff with Xcc XopR-FL (aa 1-411) of 0.0152 s⁻¹.
